Data reported in patent publication US20100310591A1 (published 2010).
Non-standard residues stand in square brackets, D forms with d. Ava = NCCCCC(=O)O

B1: Hybrid 2, Ac-LRMK-ava-IAYLKQATAK-NH2 (peptide)
peptide: Ac-LRMK[Ava]IAYLKQATAK-NH2
SMILES: CC[C@H](C)[C@H](NC(=O)CCCCNC(=O)[C@H](CCCCN)NC(=O)[C@H](CCSC)NC(=O)[C@H](CCCNC(=N)N)NC(=O)[C@H](CC(C)C)NC(C)=O)C(=O)N[C@@H](C)C(=O)N[C@@H](Cc1ccc(O)cc1)C(=O)N[C@@H](CC(C)C)C(=O)N[C@@H](CCCCN)C(=O)N[C@@H](CCC(N)=O)C(=O)N[C@@H](C)C(=O)N[C@H](C(=O)N[C@@H](C)C(=O)N[C@@H](CCCCN)C(N)=O)[C@@H](C)O
B2: Hybrid 3, Ac-LRMK-ava-ava-IAYLKQATAK-NH2 (peptide)
peptide: Ac-LRMK[Ava][Ava]IAYLKQATAK-NH2
SMILES: CC[C@H](C)[C@H](NC(=O)CCCCNC(=O)CCCCNC(=O)[C@H](CCCCN)NC(=O)[C@H](CCSC)NC(=O)[C@H](CCCNC(=N)N)NC(=O)[C@H](CC(C)C)NC(C)=O)C(=O)N[C@@H](C)C(=O)N[C@@H](Cc1ccc(O)cc1)C(=O)N[C@@H](CC(C)C)C(=O)N[C@@H](CCCCN)C(=O)N[C@@H](CCC(N)=O)C(=O)N[C@@H](C)C(=O)N[C@H](C(=O)N[C@@H](C)C(=O)N[C@@H](CCCCN)C(N)=O)[C@@H](C)O

The binders below were run against murine class II MHC allele E^k on CH27 B cell lymphoma antigen presenting cells (murine) (assay: cell-based or functional assay).

In order of rising “T cell proliferative response (HT-2 [3H]TdR uptake) at 0.01 nM” value:
1. Ac-IAYLKQATAK-NH2 [Hybrid 1, Ac-IAYLKQATAK-NH2 (antigenic epitope PGCC 95-104 without Ii-Key)]  0 thousands of cpm
2. B2  0.6 thousands of cpm
3. Ac-LRMKLPKSIAYLKQATAK-NH2 [Hybrid 4, Ac-LRMKLPKSIAYLKQATAK-NH2]  2.5 thousands of cpm
4. Ac-LRMKLPKSAKPVSKIAYLKQATAK-NH2 [Hybrid 6, Ac-LRMKLPKSAKPVSKIAYLKQATAK-NH2]  2.9 thousands of cpm
5. B1  3.4 thousands of cpm
6. Ac-LRMKLPKSAKPIAYLKQATAK-NH2 [Hybrid 5, Ac-LRMKLPKSAKPIAYLKQATAK-NH2]  14.3 thousands of cpm

In order of rising “T cell proliferative response (HT-2 [3H]TdR uptake) at 0.05 nM” value:
1. Ac-IAYLKQATAK-NH2 [Hybrid 1, Ac-IAYLKQATAK-NH2 (antigenic epitope PGCC 95-104 without Ii-Key)]  0 thousands of cpm
2. Ac-LRMKLPKSAKPVSKIAYLKQATAK-NH2 [Hybrid 6, Ac-LRMKLPKSAKPVSKIAYLKQATAK-NH2]  2.4 thousands of cpm
3. B2  5.3 thousands of cpm
4. Ac-LRMKLPKSIAYLKQATAK-NH2 [Hybrid 4, Ac-LRMKLPKSIAYLKQATAK-NH2]  5.8 thousands of cpm
5. B1  19.8 thousands of cpm
6. Ac-LRMKLPKSAKPIAYLKQATAK-NH2 [Hybrid 5, Ac-LRMKLPKSAKPIAYLKQATAK-NH2]  21.3 thousands of cpm

In order of falling “T cell proliferative response (HT-2 [3H]TdR uptake) at 0.18 nM” value:
1. Ac-LRMKLPKSAKPIAYLKQATAK-NH2 [Hybrid 5, Ac-LRMKLPKSAKPIAYLKQATAK-NH2]  36.7 thousands of cpm
2. B1  31.2 thousands of cpm
3. B2  21.6 thousands of cpm
4. Ac-LRMKLPKSAKPVSKIAYLKQATAK-NH2 [Hybrid 6, Ac-LRMKLPKSAKPVSKIAYLKQATAK-NH2]  11.9 thousands of cpm
5. Ac-LRMKLPKSIAYLKQATAK-NH2 [Hybrid 4, Ac-LRMKLPKSIAYLKQATAK-NH2]  9.1 thousands of cpm
6. Ac-IAYLKQATAK-NH2 [Hybrid 1, Ac-IAYLKQATAK-NH2 (antigenic epitope PGCC 95-104 without Ii-Key)]  0 thousands of cpm

In order of rising “T cell proliferative response (HT-2 [3H]TdR uptake) at 0.73 nM” value:
1. Ac-IAYLKQATAK-NH2 [Hybrid 1, Ac-IAYLKQATAK-NH2 (antigenic epitope PGCC 95-104 without Ii-Key)]  4 thousands of cpm
2. Ac-LRMKLPKSIAYLKQATAK-NH2 [Hybrid 4, Ac-LRMKLPKSIAYLKQATAK-NH2]  19.2 thousands of cpm
3. B2  22.3 thousands of cpm
4. Ac-LRMKLPKSAKPVSKIAYLKQATAK-NH2 [Hybrid 6, Ac-LRMKLPKSAKPVSKIAYLKQATAK-NH2]  28.7 thousands of cpm
5. Ac-LRMKLPKSAKPIAYLKQATAK-NH2 [Hybrid 5, Ac-LRMKLPKSAKPIAYLKQATAK-NH2]  30.1 thousands of cpm
6. B1  38.8 thousands of cpm

In order of rising “T cell proliferative response (HT-2 [3H]TdR uptake) at 3 nM” value:
1. Ac-IAYLKQATAK-NH2 [Hybrid 1, Ac-IAYLKQATAK-NH2 (antigenic epitope PGCC 95-104 without Ii-Key)]  0.4 thousands of cpm
2. Ac-LRMKLPKSIAYLKQATAK-NH2 [Hybrid 4, Ac-LRMKLPKSIAYLKQATAK-NH2]  19 thousands of cpm
3. B2  27.9 thousands of cpm
4. B1  30.1 thousands of cpm
5. Ac-LRMKLPKSAKPVSKIAYLKQATAK-NH2 [Hybrid 6, Ac-LRMKLPKSAKPVSKIAYLKQATAK-NH2]  31.4 thousands of cpm
6. Ac-LRMKLPKSAKPIAYLKQATAK-NH2 [Hybrid 5, Ac-LRMKLPKSAKPIAYLKQATAK-NH2]  31.4 thousands of cpm

In order of rising “T cell proliferative response (HT-2 [3H]TdR uptake) at 12 nM” value:
1. Ac-IAYLKQATAK-NH2 [Hybrid 1, Ac-IAYLKQATAK-NH2 (antigenic epitope PGCC 95-104 without Ii-Key)]  10.9 thousands of cpm
2. B1  21.9 thousands of cpm
3. Ac-LRMKLPKSIAYLKQATAK-NH2 [Hybrid 4, Ac-LRMKLPKSIAYLKQATAK-NH2]  23.1 thousands of cpm
4. B2  29.5 thousands of cpm
5. Ac-LRMKLPKSAKPVSKIAYLKQATAK-NH2 [Hybrid 6, Ac-LRMKLPKSAKPVSKIAYLKQATAK-NH2]  39.2 thousands of cpm
6. Ac-LRMKLPKSAKPIAYLKQATAK-NH2 [Hybrid 5, Ac-LRMKLPKSAKPIAYLKQATAK-NH2]  44.6 thousands of cpm

In order of falling “T cell proliferative response (HT-2 [3H]TdR uptake) at 47 nM” value:
1. Ac-IAYLKQATAK-NH2 [Hybrid 1, Ac-IAYLKQATAK-NH2 (antigenic epitope PGCC 95-104 without Ii-Key)]  29.5 thousands of cpm
2. B2  26.2 thousands of cpm
3. Ac-LRMKLPKSAKPIAYLKQATAK-NH2 [Hybrid 5, Ac-LRMKLPKSAKPIAYLKQATAK-NH2]  26.2 thousands of cpm
4. Ac-LRMKLPKSAKPVSKIAYLKQATAK-NH2 [Hybrid 6, Ac-LRMKLPKSAKPVSKIAYLKQATAK-NH2]  25.3 thousands of cpm
5. B1  20.8 thousands of cpm
6. Ac-LRMKLPKSIAYLKQATAK-NH2 [Hybrid 4, Ac-LRMKLPKSIAYLKQATAK-NH2]  19.5 thousands of cpm

In order of falling “T cell proliferative response (HT-2 [3H]TdR uptake) at 188 nM” value:
1. Ac-IAYLKQATAK-NH2 [Hybrid 1, Ac-IAYLKQATAK-NH2 (antigenic epitope PGCC 95-104 without Ii-Key)]  32.4 thousands of cpm
2. Ac-LRMKLPKSAKPIAYLKQATAK-NH2 [Hybrid 5, Ac-LRMKLPKSAKPIAYLKQATAK-NH2]  29.1 thousands of cpm
3. B1  27.2 thousands of cpm
4. Ac-LRMKLPKSAKPVSKIAYLKQATAK-NH2 [Hybrid 6, Ac-LRMKLPKSAKPVSKIAYLKQATAK-NH2]  26.9 thousands of cpm
5. B2  26.2 thousands of cpm
6. Ac-LRMKLPKSIAYLKQATAK-NH2 [Hybrid 4, Ac-LRMKLPKSIAYLKQATAK-NH2]  20.8 thousands of cpm

In order of falling “T cell proliferative response (HT-2 [3H]TdR uptake) at 750 nM” value:
1. B2  31.7 thousands of cpm
2. Ac-IAYLKQATAK-NH2 [Hybrid 1, Ac-IAYLKQATAK-NH2 (antigenic epitope PGCC 95-104 without Ii-Key)]  27.8 thousands of cpm
3. Ac-LRMKLPKSAKPIAYLKQATAK-NH2 [Hybrid 5, Ac-LRMKLPKSAKPIAYLKQATAK-NH2]  27.5 thousands of cpm
4. B1  23.9 thousands of cpm
5. Ac-LRMKLPKSAKPVSKIAYLKQATAK-NH2 [Hybrid 6, Ac-LRMKLPKSAKPVSKIAYLKQATAK-NH2]  23.4 thousands of cpm
6. Ac-LRMKLPKSIAYLKQATAK-NH2 [Hybrid 4, Ac-LRMKLPKSIAYLKQATAK-NH2]  23.3 thousands of cpm

In order of falling “T cell proliferative response (HT-2 [3H]TdR uptake) at 3000 nM” value:
1. B2  31.9 thousands of cpm
2. Ac-LRMKLPKSAKPIAYLKQATAK-NH2 [Hybrid 5, Ac-LRMKLPKSAKPIAYLKQATAK-NH2]  27.3 thousands of cpm
3. Ac-LRMKLPKSIAYLKQATAK-NH2 [Hybrid 4, Ac-LRMKLPKSIAYLKQATAK-NH2]  25.2 thousands of cpm
4. Ac-IAYLKQATAK-NH2 [Hybrid 1, Ac-IAYLKQATAK-NH2 (antigenic epitope PGCC 95-104 without Ii-Key)]  25.2 thousands of cpm
5. B1  25.1 thousands of cpm
6. Ac-LRMKLPKSAKPVSKIAYLKQATAK-NH2 [Hybrid 6, Ac-LRMKLPKSAKPVSKIAYLKQATAK-NH2]  21.5 thousands of cpm
